Results on 22 molecules are retold here after US20210403601A1 (FAPON BIOTECH, published 2021).

Where a chain is given by its changes, count along the chain named.

The target of the test is T1, Taq DNA polymerase (Thermus aquaticus, UniProt P19821 1-832).
T1 construct: also called Taq enzyme; Taq DNA enzyme
As to the kind of experiment: AMC sensor, antibody immobilised.

T1 sequence (P19821 whole entry): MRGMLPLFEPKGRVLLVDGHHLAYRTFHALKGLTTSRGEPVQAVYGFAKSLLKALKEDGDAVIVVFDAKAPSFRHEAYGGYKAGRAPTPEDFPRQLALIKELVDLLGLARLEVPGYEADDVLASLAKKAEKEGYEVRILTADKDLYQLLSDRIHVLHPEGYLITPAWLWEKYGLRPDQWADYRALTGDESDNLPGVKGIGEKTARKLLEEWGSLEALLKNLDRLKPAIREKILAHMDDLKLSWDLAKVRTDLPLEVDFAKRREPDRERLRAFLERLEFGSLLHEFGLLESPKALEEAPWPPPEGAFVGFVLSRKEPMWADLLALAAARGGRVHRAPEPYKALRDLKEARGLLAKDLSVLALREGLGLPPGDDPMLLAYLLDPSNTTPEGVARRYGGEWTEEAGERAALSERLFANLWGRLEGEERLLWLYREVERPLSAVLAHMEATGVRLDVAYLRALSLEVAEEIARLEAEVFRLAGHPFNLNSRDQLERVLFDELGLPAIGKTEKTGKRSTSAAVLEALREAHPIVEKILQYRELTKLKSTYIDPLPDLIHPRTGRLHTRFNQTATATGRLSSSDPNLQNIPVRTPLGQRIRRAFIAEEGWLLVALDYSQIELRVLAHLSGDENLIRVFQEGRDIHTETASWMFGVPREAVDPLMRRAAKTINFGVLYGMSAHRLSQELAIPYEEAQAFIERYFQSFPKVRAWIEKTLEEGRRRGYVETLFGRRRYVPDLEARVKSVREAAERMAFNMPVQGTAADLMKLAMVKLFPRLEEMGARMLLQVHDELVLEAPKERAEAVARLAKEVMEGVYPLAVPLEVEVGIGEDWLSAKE

B1: Mutation 1-16 (antibody, V domains shown)
VH: QVQLQQPGAELVKPGASVRLSCQTSVNTFSTYYIYWVKQRPGEGLEWIGGINPTSGGPVFNEKFKSKATLTVDTSSSTAYMQLSSLTSVDSAVYYCTRSLVRRGYYFDYWGQGTALTVSS
VL: DIQMTQTTSSLSASLGDRVTISCRASQDIQNYINWYQQKPDGTIKLLIYYTSRLNSGVPSRFSGSGSGTDYSLTIANLEQEDIATYFCQQDDTLPITFGAGTKVELKR
notes: Mutation 1 background; CDRs built
As for B1, binding was characterised by a dissociation constant (Kd) of 0.223 nM; the koff – broadly, a measure of how fast the partners let go of each other – worked out at 1.45e-05 s⁻¹; the association rate constant (kon) (commonly the rate constant with which the complex forms) was determined as 65100 M⁻¹ s⁻¹.

B2: Mutation 1-38 (antibody, V domains shown)
VH: B1 VH with I51V, L100I, V101I
VL: B1 VL with I33L, V58I, L94I, I96L
notes: as for B1
Take B2: the affinity, expressed as Kd, was 0.106 nM; the koff is 3.32e-06 s⁻¹; the kon amounted to 31400 M⁻¹ s⁻¹.

B3: Mutation 1-33 (antibody, V domains shown)
VH: B1 VH with N27E, V101L
VL: B1 VL with Q30N, I33L, N55Q, V58L, I96L
notes: as for B1
On to B3, for which binding was characterised by a dissociation constant (Kd) of 0.926 nM, the koff came to 3.94e-05 s⁻¹ and the kon is 42600 M⁻¹ s⁻¹.

B4: Mutation 1-26 (antibody, V domains shown)
VH: B1 VH with I51L, V101I
VL: B1 VL with I33L, V58L, I96L
notes: as for B1
For B4, the Kd – broadly, the concentration at which binding is half-saturated – stood at 0.852 nM; the koff came to 2.89e-05 s⁻¹; the kon came out at 34000 M⁻¹ s⁻¹.

B5: Mutation 1-29 (antibody, V domains shown)
VH: QVQLQQPGAELVKPGASVRLSCQTSVETFTTYYIYWVKQRPGEGLEWIGGLNPTSNPVFNEKFKSKATLTVDTSSSTAYMQLSSLTSVDSAVYYCTRSIIRRGYYFDYWGQGTALTVSS
VL: B1 VL with Q30N, V58I, L94I, I96V
notes: as for B1
Molecule B5 displayed a dissociation constant (Kd) of 0.0314 nM, a koff of 1.13e-06 s⁻¹ and a kon of 36100 M⁻¹ s⁻¹.

B6: Mutation 1-35 (antibody, V domains shown)
VH: B5 VH with E27D, L51V, I99L
VL: B1 VL with Q30N, V58L, I96V
notes: as for B1
In turn, B6 returned a Kd of 0.706 nM, a dissociation rate constant (koff) of 3.7e-05 s⁻¹ and a kon of 52400 M⁻¹ s⁻¹.

B7: Mutation 1-37 (antibody, V domains shown)
VH: B5 VH with I100V
VL: B1 VL with Q30N, I33V, N55H, V58I, L94I
notes: as for B1
In turn, B7 gave an equilibrium dissociation constant (Kd) of 0.382 nM, a koff of 2.68e-05 s⁻¹ and a kon of 70200 M⁻¹ s⁻¹.

B8: Mutation 1-24 (antibody, V domains shown)
VH: B1 VH with N27E, I51V, V101L
VL: B1 VL with I33V, N55Q, V58L, I96V
notes: as for B1
As for B8, the Kd was determined as 0.199 nM, the koff was 1.12e-05 s⁻¹ and the kon was 56400 M⁻¹ s⁻¹.

B9: Mutation 1-25 (antibody, V domains shown)
VH: B1 VH with N27E, S30T
VL: B1 VL with Q30N, I33V, N55H, V58L
notes: as for B1
Regarding B9, the Kd was found to be 0.678 nM, the koff is 4.57e-05 s⁻¹ and the kon came to 67300 M⁻¹ s⁻¹.

B10: Mutation 1-30 (antibody, V domains shown)
VH: B1 VH with L100V, V101L
VL: B1 VL with I33V, N55Q, L94V, I96L
notes: Mutation 1 background; CDRs built; CDR-VL3 cell printed VL, read as V/L
Molecule B10 yielded an equilibrium dissociation constant (Kd) of 0.911 nM, a koff of 4.49e-05 s⁻¹ and an on-rate constant (kon) of 49300 M⁻¹ s⁻¹.

B11: Mutation 1-22 (antibody, V domains shown)
VH: B1 VH with S30T, L100V
VL: B1 VL with N55H, L94V
notes: as for B1
In turn, B11 displayed a Kd of 0.384 nM, a koff of 3.7e-05 s⁻¹ and a kon of 97200 M⁻¹ s⁻¹.

B12: Mutation 1-60 (antibody, V domains shown)
VH: B1 VH with S30T, I51V, V101L
VL: B1 VL with N55H, I96V
notes: as for B1
On to B12, for which the dissociation constant (Kd) turned out to be 0.0314 nM, the koff was found to be 2.66e-06 s⁻¹ and the kon was 84600 M⁻¹ s⁻¹.

B13: Mutation 1-52 (antibody, V domains shown)
VH: B1 VH with N27E, S30T, I51L
VL: B1 VL with N55H, V58I
notes: as for B1
B13 showed a dissociation constant (Kd) of 0.698 nM, an off-rate (koff) of 2.37e-05 s⁻¹ and a kon of 34000 M⁻¹ s⁻¹.

B14: Mutation 1-23 (antibody, V domains shown)
VH: B1 VH with N27D, I51L, L100V, V101I
VL: B1 VL with Q30N, L94V, I96L
notes: as for B1
Molecule B14 displayed a Kd of 0.913 nM, a koff of 6.41e-05 s⁻¹ and a kon of 70200 M⁻¹ s⁻¹.

B15: Mutation 1-40 (antibody, V domains shown)
VH: B1 VH with N27D, I51L, L100V
VL: B1 VL with N55H, L94V
notes: as for B1
For B15, binding was characterised by a dissociation constant (Kd) of 0.615 nM, the koff stood at 4.7e-05 s⁻¹ and the kon stood at 76400 M⁻¹ s⁻¹.

B16: Mutation 1-39 (antibody, V domains shown)
VH: B1 VH with S30T, L100V, V101L
VL: B1 VL with Q30N, I33L, N55Q, L94V, I96L
notes: as for B1
As for B16, the Kd was determined as 0.457 nM, the koff stood at 2.2e-05 s⁻¹ and the kon is 48100 M⁻¹ s⁻¹.

B17: Mutation 1-50 (antibody, V domains shown)
VH: B1 VH with I51V, L100V, V101I
VL: B1 VL with I33L, N55Q, V58L, L94V, I96V
notes: as for B1
In turn, B17 showed a Kd of 0.593 nM, a koff of 3.02e-05 s⁻¹ and a kon of 50800 M⁻¹ s⁻¹.

B18: Mutation 1-46 (antibody, V domains shown)
VH: B1 VH with N27D, I51L, L100I
VL: B1 VL with V58I, L94I
notes: as for B1
Consider B18, for which binding was put at a Kd of 0.655 nM, the off-rate (koff) was 2.87e-05 s⁻¹ and the kon stood at 43800 M⁻¹ s⁻¹.

B19: Mutation 1-32 (antibody, V domains shown)
VH: B1 VH with N27D, I51V, L100V, V101I
VL: B1 VL with I33L, L94V, I96V
notes: as for B1
In turn, B19 returned a Kd of 0.281 nM, a koff of 8.8e-06 s⁻¹ and a kon of 31300 M⁻¹ s⁻¹.

B20: Mutation 1-21 (antibody, V domains shown)
VH: B1 VH with I51V, L100V, V101L
VL: B1 VL with Q30N, I33L, N55Q, L94V, I96V
notes: as for B1
B20 gave a Kd of 0.0664 nM, a koff of 5.96e-06 s⁻¹ and a kon of 89800 M⁻¹ s⁻¹.

B21: Mutation 1-34 (antibody, V domains shown)
VH: B1 VH with N27D, I51L
VL: B1 VL with N55H, V58L
notes: as for B1
Turning to B21, the Kd is 0.987 nM, the dissociation rate constant (koff) amounted to 6.17e-05 s⁻¹ and the kon is 62600 M⁻¹ s⁻¹.

B22: Mutation 1-31 (antibody, V domains shown)
VH: B1 VH with S30T, I51L, L100V
VL: B1 VL with Q30N, I33V, N55H, L94V
notes: as for B1
B22 returned a Kd of 0.85 nM, a koff of 5.38e-05 s⁻¹ and a kon of 63300 M⁻¹ s⁻¹.
